In the nanobody polyreactivity screen of Harvey et al. (2022):

Assay: yeast display, Sf9 membrane polyspecificity reagent, FACS + sequencing; frameworks hold sequencing errors
Method in brief: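 Using colony PCR, genes from sorted yeast display clones were amplified, then sequenced on MiSeq at 2 × 250 and filtered by CDR length. The clones had been stained with 10% biotinylated, detergent-solubilized Sf9 membrane reagent for 1 hour at 4 °C and sorted by FACS into low and high (top ~1%) gates on anti-HA and streptavidin fluorescence. Polyreactivity labels come from the gate of origin.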

| Sequence | polyreactivity (PSR sort gate) |
| --- | --- |
| QVQLVESGGGLVQAGGSLRLSCAASGRIFIYYAMGWYRQAPGKERELVAAISWGGGRTYYADSVKGRFTITRDNAKNTVYLQINSLKPEDTAVYYCAAGVYTGQHEYDYWGQGTQVTVSS | low polyreactivity |
| QGQLVESGGGLVQAGGSLRLSCAASGGTFEYNTMGWYRQAPGKERELVAAIRSSTVRTYYADSVKGRFTISRDNAKNTVYLQMNSLKPEDTAVYYCAATRYRKYWGQGTQVTVTS | high polyreactivity |
| QVQLVESGGGLVQAGGSLRLSCAASGSTFDVYAMGWYRQAPGKERELVATITGSGGSTYYADSVKGRFTISRDNAKNTVYLQMNSLKPEDTAVYYCAARYPVSGGYDYWGQGTQVTVSS | low polyreactivity |
| QVQLVESGGGLVQAGGSLRLSCAASGRTLLAYAMGWYRQAPGKEREFVAAISSRGVRTYYADSVKGRFTISRDNAKNTVYLQMNSLKPEDTAVYYCATRGTKSIKDVPGFRYGYWGQGTQVTVSS | high polyreactivity |
| QVQLVESGGGLVQAGGSLRLSCAASGNTFGYNAMGWYRQAPGKERELVAAISWRGGRTYYADSVKGRFTISRDHAKNTVYLQMNILKTEDTAVYYCAARRHSTRLRLTYDYWGQGTQVTVSW | high polyreactivity |
| QVQLEESGGGLVQAGGSLRLSCAASGSIFKRKAMGWSRQAPGKERELVASISSGGSTHYADSVKGRFTISRDNAKNTVYLQMNSLKREDTAVYYCAATSIRWSVGSFRRDYWGQGTQVTVSS | low polyreactivity |
| QVQLVESGGGLVQAGGSLRLSCAASGSTFYYYAMGWYRQAPGKERELVASITTGGGSTYYADSVKGRFTISRDNAKNTFYLEMNSLKPEDTAVYYCAAALSYYFWWYDYLGQGTQVTVSS | low polyreactivity |
| QVQLVESGGGLVQAGGSLRLSCAASGYIFKYYAMGWYRQAPGKERELVATINYSGGGTYYADSVKGRFTISRDNAKNTVYLQMNSLKPEDTAVYYCAAEHFFWGYDYWGQGTQVTVSS | high polyreactivity |
| QVQLVESGGGLVQAGGSLRLSCAASGSTFVGYAMGWYRQAPGKERELVADIDSIGGSTYYADSVKGRFTISRDNAKNTVYVQMNSLKPEDTAVYYCAARRFDTALVLYDYWGQGTQVTVSS | low polyreactivity |
| QVQLVESGGGLVQAGGSLRLSCAASGIYYNAMGWYRQAPGKERELVAAITTGDRTNYADSVKGRFTISRDNAKNTVYLQMYSLIPEDTAVYYCKAVVERLSSTARDFAYDYWGQGTQVNVSS | low polyreactivity |
| QVQLVESGGGLVQAGGSLRLSCAASGSIFSSNTMGWYRQAPGKERELVAAITSGGTTYADSVKGRFTISRDNAKNTVYLQMNSLKPEDTAVYYCAARYYIHRGYDYDYWGQGTQVTVSS | high polyreactivity |
| QVQLVESGGGLVQAGGSLRLSCAASGIVRQNPMGWYRQAPGKERELVACISQSGGSTYYADSVKGRFTISRDNAKNTVYLQMNSLKPEDTAVYYCAVVSIWGYDYWGEGTQVTVSS | low polyreactivity |
| QVQLVESGGGLVQAGGSLRLSCAASRNIFRYYVMGWYRPAPGKEREFVAAISYRAGSTYYADSVKGSFTISRDNAKNTVYLQMNSLKPEDTAFYYCNAERTRDFYEYDYWGQGTQVTVSS | low polyreactivity |
| QVQLVESGGGLVQAGGSLRLSCAASGRIFFGYAMGWYRPAPGKERVLVAAISSRGGSTYYADSVKGRFTISRDNAKNTVYLKMNSLKPEDTAVYYCARKRYKRSTRTEFGYWGQGTQVTVSS | high polyreactivity |
| QVQLVESGGGLVQAGGSLRLSCAASGSTFVSNAMGWYRQAPGKERELVASISQSGGGTDYADSVKGRFTISRDNAKNTVYLQMNSLKPEDTAVYYCAADRVPVQAPYDYWGQGTQVTVSS | high polyreactivity |
| QVQLVESGGGLVQAGGSLRLSCAASGSTSSVYDMGWYRQEPGKERELVAGIDYSAGSTYYADSVKGRFTISRDNAKNTVYLQMNSLKPEDTAVYYCDADAAYYSGYDYWGQGTQVTVSS | low polyreactivity |
| QVHLVESGGGLVQAGGSLRLSCAASGRTFVINAMGWYRQAPGKERELVAAITWGGGSTYYADSVKGRFTISRDNAKNTVYLQMNSLKPEDTAVYYCATSYSVQYGGSGYYWGQGTQVTVSS | low polyreactivity |
| QVQLVESGGGLFQAGGSLRLSCAASGSIFGHYAMGWYRQAPGKERELVAAISYSGGSTYYADSVKGRFTISRDNAKNTVYLHMNSLKPEDTAVYYCNADLYDAGSEMDYWGQGTQVTVSS | high polyreactivity |
| QGQLVESGGGLVQAGGSLRLSCAASGIIFTANVMGWYRQAPGKERELVAAITRGGNTYYADSVKGRFTISRDNAKNTVYLQMNSLKPEDTAVYYCAAADYTTPVPYGRKGFDYWGQGTQVTVSS | low polyreactivity |
| QVQLVESGGRLVQAGGSLRVSCAASGSIFRIYSMGWYRQAPGKERELVATISSTGSTYYADSVKGRFTISRDNAKNSVYLQLNSQKPEDTAVYYCAALWKVSSRYWRMDYWGQGTQVTVSS | high polyreactivity |
| QVQLVESGGGIVQAGGSLSLSCAASGFNFGIYAMGWYRQAPGKEREFVAAITGSAGSTYYADSVKGRFTISLDNAKNTVYLQMNSLKPEDTAVYYCAAVLRTHRYGGYNYWGQGTQVTVSS | low polyreactivity |
| QVQLVESGGGLVQAGGSLRLSCAASGIIFRYYAMGWYRQAPGKERELVAAISSSTGNTYYADSVKGRFTISRDNAKNTVYLQMNSLKPEDTAVYYCAARTRQISIVGYNYWGQGTQVTVSS | high polyreactivity |

| Sequence | polyreactivity (PSR sort gate) |
| --- | --- |
| QVQLEESGGGLVQAGGSLRLSCAASGSIFVYYGMGWYRQAPGKERELVAAISSGGSTHYADSVKGRFTISRDNAKNTVYLQMNSLKPEDTAVYYCNARAYGNGLGTGYFGKHRYDYWGQGTQVTVSS | low polyreactivity |
| QVQLVESGGGLVQAGGSLRLSCAASGITFRAYVMGWYRQEPGKERELVAAINRRGGSTYYADSVKGRFTISRDNAKNTVYLQMNSLKPEDTAVYYCAAGLYSTGYTYDYWGQGTQVTVSS | high polyreactivity |
| QVQLVESGGGLVQAGGSLRLSCAASGRTFYYYAKGWYRQAPGKERELVARISRCGSTNYADSVKGRFTISRDNAKNTVYLQMISLKPEDSAVYYCAAGWRGGRYRYFAYDYWGQGTQVTVSS | high polyreactivity |
| QVQLVESVGGLVQAGGSLRLSCAASVYAMGWYRPAPGKERELVAAITDSGSTNYADSVKGRFTISRDNAKNTVYLQMNSLKPEDNAVYYCNADPYYATGSWARLPLYQYDYWGPGTQVTVSS | low polyreactivity |
| QVQLVYSGGGLVQSGGSLRLSCAASGYIVQPYAMGWYRQAQGKERELVAPISWRGGSTYSADSVKGRFTISRDNAKNTVYLQMYSLKPEDTAVYYFAKDYYYGLEHYGYWGQGTQVTVSS | low polyreactivity |
| QVQLVESGGGLVQAGGSLRLSCAASGFILYQNALGWYRQAPGKERELVAAITESDGITYYADSVKGRFTISRDNAKNTVYLQMNSLKPEDTAVYDCNTGFSYTYDYWGQGTQVTVSS | low polyreactivity |
| QVQLVESGGGLVQAGGSLRLSCAASGRITGINAMGWYRPAPGKERELVAAITWRGGRKYYADSVKGRFTISRDNAKNTVYLQMNSLKPEDTAVYYCAAELQGAYYFAYYYWGQGTQVNVSS | high polyreactivity |
| QVQLVESGGGLVQAGGSLRLSCAASGRIFYANTMGWYRKATGKERELVAAISSGGSTTYADSVKGRFTISRENAKNTVYLQMNSLKPEDPAVYYCATNTWYHYQRMYYWGQGTQVTVSS | high polyreactivity |
| QVQLVESGGGLVQAGGSLRLSCAASGSTFVPNAMGWYRQAPGKERELVAAISSVGSTNYADSVKGRFTISRDNAKNTVYLQMNSLKPEDTAVYYCAVRYPWRYFKYGYWGQGTQVTVSS | low polyreactivity |
| QVQLVESGGGLVEPGGSLRLSFASSGRTYQFYVMGWSRQAPGKERELVASIRSGGSTNYADSVKGRFTISRDNAKNTVYLLMNSLKPEDTALYYCAARVASPYYRYVYWGKGTQVTVSS | low polyreactivity |
| QVQLVESGGGLVQAGGSLRLSCAASGRIFSTYVMGWYRQAPGKERELVAAIRNNGGSTYYADSVKGRFTISRDNAKNTVYLQMNSLKPEDTAVYFCAKKSFFTGRWWYDYWGQGTQVTVSS | high polyreactivity |
| QVQLVESVGGLVQAGGSLRLSCAASGFTFKYYAMGWYRQAPGKERELVAAITGTGGSTYYADSVKGRFTISRDTAKNTVYLLMNSLKPEDTAVYYCNAGSARGYVPYDSFAYDYWGQGTQVTVSS | low polyreactivity |
| QVQLVESGGGLVQAGGSLRLSCAASGSILYYNAMGWYRQAHGKEREFVASISLTGGSTTYADSVKGRFTISRDNAKNTVYLQMNSLKPEDTAVYYCNATHYPAADRSTNNYGGGFDYWGEGTQVTVSS | low polyreactivity |
| QVQLVESGGGLVQAGGSLRLSCAASGRTLLYYAMGWYRQAPGKERELVASISRGSSTNYADSVKGRFTISRDNAKNTVYLQMNSLKPEDTAVYWGQGTQVTVSS | low polyreactivity |
| QVQLVESGGGLVQAGGSLRLSCAASGRTFTTNAMGSYRQAPGKERELVAAITIGDDTYYADSVKGRFTISRDNAKNTVYLQMNSLKPEDTAVYYCAADYKRVPFVTQYVSKDGYWGQGTQVTVSS | low polyreactivity |
| QVQLVESGGGLVQAGGSLRLSCAASGRIFGVYAMGWYRQAPGKERELVAAISSTGGSTYYADSVKGRFTISRDNAKNTVYLQMNSLKPEDTAVYYCEYDYWGQGTQVTVSS | low polyreactivity |
| QVQLLESGGGIVQAGGSLRLSCAASGRIFVPYAMGWYRQAPGKERELVAAISGRGDSTYYADSVKGRFTISRDNAKNSVYLQMNSLKPEDTAVYYCAKYRPYYTPSYWSRYDYWGQGTQVSVSS | high polyreactivity |
| QEQLQESVVCQVQAGRSLHLSCAASGNIIRYSYMGWYRQAPGNERELVAAITYGTSTNYADSVKGRFTISRDHAKNTVYLQMTSLKPEDTAVYYCAVDVNYGDPLDNWCQGTQVTVSS | high polyreactivity |
| QVQLVESGGGLVQAGGSLRLSCAASGFTFSRNTMGWYRQAPGKARELVARISASGGSTYYADSVKGRFTISRDNAKNTVYLQMNSLKPEDTAVYYCAAVYRRYGGSRYDYWGQGTQVTVSS | high polyreactivity |
| QVQLVESGGGLVQAGGSLRLSCAASGSTFVVNVMGWYRQAPGKERELVAAITYRSGSTYYADSVKGSFTISRDNAKNTVYLQMNSLKPEDTAVYYCAAGYYSRYYVAFEYYYWGQGTQVTVSS | high polyreactivity |
| QVQLVESGGGLVQAGGSLRLSCAASGFIFRYNAMGWYRQAPGKERELVAVITSGDNTYYADSVKGRFTISRDNAKNTVYLQMNSLKPEDTAVYYCAARYRHYFVRGGYWGQGTQVTVSS | high polyreactivity |
